Reference: publication doi:10.1101/2025.10.16.682781

Tests used:
Experiment in all cases: ITC
[1] = biological target: FusB-CTD wild type (C-terminal domain of the TonB homologue FusB of Pectobacterium carotovorum LMG2410) (Pectobacterium carotovorum LMG2410)
[2] = biological target: FusB-CTD R241K (Pectobacterium carotovorum LMG2410)
[3] = biological target: FusB-CTD R241A (Pectobacterium carotovorum LMG2410)
[4] = biological target: FusB-CTD D322N (Pectobacterium carotovorum LMG2410)

| Substance | Kd [1] [mM] | Kd [2] [mM] | Kd [3] [mM] | Kd [4] [mM] |
| --- | --- | --- | --- | --- |
| SpFer F64Y (natural protein) | 30.7 | – | – | – |
| SpFer E93A/E94A (from UniProt P00221 51-147) (natural protein) | 31.3 | – | – | – |
| FusANTR-GFP wild type (GFP fusion construct containing the N-terminal region, residues 21-66, of FusA) (domain or fragment) | – | 25.3 | 38.8 | 0.0094 |
| FusANTR-GFP D53A (domain or fragment) | 31.6 | – | – | 31.8 |
